In article PMC11530556:

Biological target: full-length Titin N2B unique sequence (N2B-us) single-molecule construct, 6His-Avi-2I27-N2B-2I27-Spy (human)
Test: magnetic tweezers single-molecule manipulation; full-length N2B-us tether; jump to 8 pN procedure: 1 pN for 10 s, 8 pN for 20 s, back to 1 pN; bead height difference at 1 pN; 200 nM FHL2; five tethers

Chain of full-length Titin N2B unique sequence (N2B-us) single-molecule construct, 6His-Avi-2I27-N2B-2I27-Spy (human) (Q8WZ42 3717-4288): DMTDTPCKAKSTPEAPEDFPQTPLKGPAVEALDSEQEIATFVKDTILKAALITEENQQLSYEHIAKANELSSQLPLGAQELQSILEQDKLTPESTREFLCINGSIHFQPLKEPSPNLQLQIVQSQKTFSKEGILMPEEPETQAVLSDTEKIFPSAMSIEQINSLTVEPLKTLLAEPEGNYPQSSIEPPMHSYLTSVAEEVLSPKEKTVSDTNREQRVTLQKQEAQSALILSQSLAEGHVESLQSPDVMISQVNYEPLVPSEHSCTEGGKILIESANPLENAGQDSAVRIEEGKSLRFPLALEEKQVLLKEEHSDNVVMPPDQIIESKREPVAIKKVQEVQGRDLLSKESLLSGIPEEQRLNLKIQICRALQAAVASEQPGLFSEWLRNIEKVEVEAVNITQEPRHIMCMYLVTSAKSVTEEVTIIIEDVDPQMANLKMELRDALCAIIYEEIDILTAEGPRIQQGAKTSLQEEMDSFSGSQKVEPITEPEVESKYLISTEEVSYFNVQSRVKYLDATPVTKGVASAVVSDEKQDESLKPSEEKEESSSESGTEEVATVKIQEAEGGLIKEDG

Recombinant GST-FHL2 protein (four-and-a-half LIM domain protein 2) (natural protein)
average extension difference at 1 pN before and after 20 s at 8 pN, with 200 nM FHL2: 10 nm
